Here are results for ten molecules from US20180057579A1 (Pfizer, published 2018).

Where a chain is given by its changes, count along the chain named. Names and notes keep the numbering of the source. A value given as a limit tells only on which side of the number the result lay.

The target of assay [1] is T1, Growth and differentiation factor-8 (GDF-8), mature human (human, UniProt O14793 267-375, conjugated to biotin in the ActRIIB ELISA and in the Fc gamma receptor SPR (site not stated)). Kind of assay: cell-based or functional assay.
Assay [2] has as its target T1, Growth and differentiation factor-8 …. Kind of assay: SPR (BIACORE 3000), antibody captured with anti-mouse IgG, GDF-8 flowed, 1:1 Langmuir fit.
For assay [3] the target is unchanged. Kind of assay: competition ELISA: antibody inhibits biotin-GDF-8 (10 ng/ml) binding to coated ActRIIB-Fc. A general note: ELISA stands for enzyme-linked immunosorbent assay.
The target is the same in assay [4]. Kind of assay: SPR (BIACORE 3000), captured antibody, GDF-8 flowed, 1:1 Langmuir fit. (SPR reads the build-up and loss of mass on a sensor chip optically.)
Assay [5] shares this target. Kind of assay: SPR.
Assay [6] shares this target. Kind of assay: cell-based or functional assay. This is another data set of the same source.
For assay [7] the target is unchanged. Kind of assay: competition ELISA (GDF-8 / ActRIIB-Fc).
In assay [8] the target is T2, CD32b (Fc gamma receptor) (UniProt P31994 43-217).
T2 sequence (looked up): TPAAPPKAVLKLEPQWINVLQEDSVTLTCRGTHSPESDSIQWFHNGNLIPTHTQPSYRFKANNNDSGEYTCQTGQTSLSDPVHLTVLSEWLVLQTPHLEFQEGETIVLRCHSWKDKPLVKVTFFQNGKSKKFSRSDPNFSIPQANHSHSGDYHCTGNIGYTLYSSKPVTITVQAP
Kind of assay: SPR (Biacore T200), OGD1.0.0 captured on biotin-GDF-8 on an SA chip, receptor flowed.

For assay [9], the target named is T1, Growth and differentiation factor-8 …. Kind of assay: SPR (BIACORE 3000), antibody captured on protein A, GDF-8 flowed, 1:1 Langmuir fit.
The target in assay [10] is T3, CD16a-158V (Fc gamma receptor) (UniProt P08637 17-208).
T3 construct: The 158V allotype is as printed
Kind of assay: SPR (Biacore T200), OGD1.0.0 captured on biotin-GDF-8 on an SA chip, receptor flowed, single-cycle kinetics.

Assay [11] has as its target T4, CD32a-131H (Fc gamma receptor) (UniProt P12318 34-217).
T4 construct: The 131H allotype is as printed
T4 sequence (looked up): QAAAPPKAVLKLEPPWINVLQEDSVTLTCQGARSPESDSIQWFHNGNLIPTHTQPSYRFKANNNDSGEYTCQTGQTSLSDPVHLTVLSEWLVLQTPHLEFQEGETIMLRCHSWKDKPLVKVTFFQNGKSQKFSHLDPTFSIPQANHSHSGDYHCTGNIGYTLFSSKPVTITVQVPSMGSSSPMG
The assay is described as above.

The next assay has as its target CD64 (Fc gamma receptor) (UniProt P12314 16-288, limits assumed). Described as above.
For assay [12], the target named is T1, Growth and differentiation factor-8 …. Kind of assay: competition ELISA.

B1: Murine anti-GDF-8 monoclonal antibody (parental murine antibody) (antibody, V domains shown)
VH: EVQLVESGGGLVKPGGSLKLSCAASGFTFSSYAMSWVRQTPEKRLEWVATISSGGSYTSYPDSVKGRFTISRDNAKNTLYLQMSSLRSEDTAMYYCARQDYAMNYWGQGTSVTVSS
VL: DIEMTQSHKFMSTSVGDRVSITCKASQDVSTAVAWYQQKPGQSPKLLLYSASYRYTGVPDRFTGSGSGTDFTFTISSVQAEDLAVYYCQQHYSTPWTFGGGTKLEIK
notes: also called mouse anti-GDF-8 antibody
As to B1, the “CAGA EC50” value in assay [1] was 33.5 nM. For the same molecule, in assay [2], binding was put at a Kd of 0.0218 nM. Moreover, in assay [3], the IC50 (usually the concentration at which inhibition is half-maximal) worked out at 0.165 nM.

B2: Chimeric mouse-human anti-GDF-8 antibody (murine variable domains and human constant domains) (antibody, human IgG1, V domains shown)
VH: B1 VH
VL: B1 VL
notes: also called Chimeric antibody
On to B2, for which the “CAGA EC50” value in [1] was 24.2 nM. In addition, binding in assay [4] was put at a Kd of 0.00299 nM. For the same molecule, the IC50 in assay [3] was determined as 0.165 nM.

B3: OGD1.0.0 humanized anti-GDF-8 antibody (VH0 and VL0) (antibody, human IgG1, kappa)
heavy: EVQLLESGGGLVQPGGSLRLSCAASGFTFSSYAMSWVRQAPGKGLEWVSTISSGGSYTSYPDSVKGRFTISRDNSKNTLYLQMNSLRAEDTAVYYCAKQDYAMNYWGQGTLVTVSSASTKGPSVFPLAPSSKSTSGGTAALGCLVKDYFPEPVTVSWNSGALTSGVHTFPAVLQSSGLYSLSSVVTVPSSSLGTQTYICNVNHKPSNTKVDKKVEPKSCDKTHTCPPCPAPEAAGAPSVFLFPPKPKDTLMISRTPEVTCVVVDVSHEDPEVKFNWYVDGVEVHNAKTKPREEQYNSTYRVVSVLTVLHQDWLNGKEYKCKVSNKALPAPIEKTISKAKGQPREPQVYTLPPSREEMTKNQVSLTCLVKGFYPSDIAVEWESNGQPENNYKTTPPVLDSDGSFFLYSKLTVDKSRWQQGNVFSCSVMHEALHNHYTQKSLSLSPGK
light: DIQMTQSPSSLSASVGDRVTITCKASQDVSTAVAWYQQKPGKAPKLLIYSASYRYTGVPSRFSGSGSGTDFTLTISSLQPEDFATYYCQQHYSTPWTFGGGTKVEIKRTVAAPSVFIFPPSDEQLKSGTASVVCLLNNFYPREAKVQWKVDNALQSGNSQESVTEQDSKDSTYSLSSTLTLSKADYEKHKVYACEVTHQGLSSPVTKSFNRGEC
notes: also called OGD1.0.0 antibody
B3: the Kd – broadly, the equilibrium constant for the complex coming apart – is 0.00259 nM in [5], above 21000 nM in assay [8] and 0.00259 nM in [9]. The “CAGA EC50” value in [1] worked out at 27.3 nM. For the same molecule, the “IC50 by reporter gene assay compared to OGD1.0.0” value in assay [6] is 1 fold of OGD1.0.0. The “IC50 by ELISA compared to OGD1.0.0” value in assay [7] is 1 fold of OGD1.0.0. For the same molecule, the IC50 in assay [3] is 0.14 nM. For the same molecule, the values for the binding result (in assay [10]; in assay [11]; in the assay with CD64 (Fc gamma receptor)) were “no binding (tested: 0-21 µM)”, “no binding (tested: 0-21 µM)” and “no binding (tested: 0-270 nM)”, respectively.

B4: OGD1.1.1 humanized anti-GDF-8 antibody (VH1 and VL1) (antibody, human IgG1, kappa)
heavy: B3 heavy with L111M
light: B3 light with G100Q
As to B4, the “CAGA EC50” value in assay [1] is 26 nM. In [9], this molecule returned a Kd of 0.00725 nM. For the same molecule, the IC50 in assay [3] was determined as 0.14 nM.

B5: OGD1.0.2 humanized anti-GDF-8 antibody (VH0 and VL2) (antibody, V domains shown)
VH: EVQLLESGGGLVQPGGSLRLSCAASGFTFSSYAMSWVRQAPGKGLEWVSTISSGGSYTSYPDSVKGRFTISRDNSKNTLYLQMNSLRAEDTAVYYCAKQDYAMNYWGQGTLVTVSS
VL: DIQMTQSPSSLSASVGDRVTITCKASQDVSTAVAWYQQKPGKAPKLLIYAASSLQSGVPSRFSGSGSGTDFTLTISSLQPEDFATYYCQQHYSTPWTFGGGTKVEIK
notes: Intact antibody produced in COS-1 cells
Regarding B5, the Kd in assay [5] was 0.00146 nM. Besides, the “IC50 by reporter gene assay compared to OGD1.0.0” value in assay [6] was 1.03 fold of OGD1.0.0. Besides, in assay [7], the “IC50 by ELISA compared to OGD1.0.0” value is 0.91 fold of OGD1.0.0.

B6: OGD1.0.5 humanized anti-GDF-8 antibody (VH0 and VL5) (antibody, V domains shown)
VH: B5 VH
VL: B5 VL with K24R, D28S, V29I, V33L, A34N, A50S, H91S, W96L
notes: VL5 is VL3 with W96L
In assay [5], B6 showed a Kd of 0.057 nM. Besides, in assay [7], the “IC50 by ELISA compared to OGD1.0.0” value is 5.94 fold of OGD1.0.0.

B7: OGD1.0.3 humanized anti-GDF-8 antibody (VH0 and VL3) (antibody, V domains shown)
VH: B5 VH
VL: B5 VL with K24R, D28S, V29I, V33L, A34N, A50S, H91S
In turn, B7 had a Kd in assay [5] of 0.00317 nM. Besides, the “IC50 by reporter gene assay compared to OGD1.0.0” value in [6] is 0.85 fold of OGD1.0.0. Moreover, in assay [7], the “IC50 by ELISA compared to OGD1.0.0” value was 0.96 fold of OGD1.0.0.

B8: OGD1.4.0 humanized anti-GDF-8 antibody (VH4 and VL0) (antibody, V domains shown)
VH: B5 VH with M103F, N104D
VL: B5 VL with A50S, S53Y, L54R, Q55Y, S56T
notes: VH4 carries M99F and N101D in CDR3
In the case of B8, in assay [5], binding was characterised by a dissociation constant (Kd) of 0.284 nM. The “IC50 by reporter gene assay compared to OGD1.0.0” value in assay [6] was 7.5 fold of OGD1.0.0. The “IC50 by ELISA compared to OGD1.0.0” value in assay [7] was 1.71 fold of OGD1.0.0.

B9: OGD1.0.4 humanized anti-GDF-8 antibody (VH0 and VL4) (antibody, V domains shown)
VH: B5 VH
VL: not shown
notes: VL4 is VL3 with S50A
As to B9, binding in [5] was put at a Kd of 0.00246 nM. Moreover, the “IC50 by reporter gene assay compared to OGD1.0.0” value in assay [6] is 1.54 fold of OGD1.0.0. Further, the “IC50 by ELISA compared to OGD1.0.0” value in assay [7] is 0.61 fold of OGD1.0.0.

B10: OGD1.3.0 humanized anti-GDF-8 antibody (VH3 and VL0) (antibody, V domains shown)
VH: B5 VH with T50A, G54S, S56G, S59Y, P61A
VL: B5 VL with A50S, S53Y, L54R, Q55Y, S56T
As to B10, the binding result in [12] is given as “binds”.
